This note sets out measurements from publication PMC8148087.

Read-outs that look alike come from different tables or passages of the source.

In general, Kd refers to the constant that tells how readily two partners part at equilibrium. Low values mean tighter binding, high ones weaker binding.

For experiment [1], the target named is FAM-HLA (model peptide HLA attached to a FAM fluorophore). The experiment can be described thus: fluorescence polarisation. Background: In fluorescence polarisation assays a small probe gives low polarisation when free and higher when bound to something large.
The target is the same in experiment [2]. The experiment is described as follows: fluorescence polarisation. This is another data set of the same source.

In the case of “E. coli DnaK Y145A (from UniProt P0A6Y8 1-638) (natural protein)”, the figures for the equilibrium dissociation constant (Kd) in experiment [1] and in experiment [2] were above 30 µM and 9 µM, respectively.
In the case of “E. coli DnaK Y145W (from UniProt P0A6Y8 1-638) (natural protein)”, the Kd turned out to be 4 µM in experiment [1] and 8 µM in experiment [2].
On the same counts, the results for “E. coli DnaK, wild type (from UniProt P0A6Y8 1-638) (natural protein)” are above 30 µM and 9 µM.
For the substance “human Hsc70 Y149A (from UniProt P11142 1-646) (natural protein)”, the Kd in experiment [1] turned out to be 4 µM.
Regarding “human heat shock cognate protein 70 (Hsc70), wild type (from UniProt P11142 1-646) (natural protein)”, the dissociation constant Kd in experiment [1] was 26 µM; in experiment [2], 5 µM.
